Among the data in patent US20140322759 are Kd values, retold here.

Common to all, as to experiment: EMSA
Background: A gel shift assay detects complexes by their altered migration in electrophoresis.

The target of series [1] is T1, phi29 DNA polymerase F526L F526L (Bacillus phage phi29) (UniProt P03680).
T1 sequence: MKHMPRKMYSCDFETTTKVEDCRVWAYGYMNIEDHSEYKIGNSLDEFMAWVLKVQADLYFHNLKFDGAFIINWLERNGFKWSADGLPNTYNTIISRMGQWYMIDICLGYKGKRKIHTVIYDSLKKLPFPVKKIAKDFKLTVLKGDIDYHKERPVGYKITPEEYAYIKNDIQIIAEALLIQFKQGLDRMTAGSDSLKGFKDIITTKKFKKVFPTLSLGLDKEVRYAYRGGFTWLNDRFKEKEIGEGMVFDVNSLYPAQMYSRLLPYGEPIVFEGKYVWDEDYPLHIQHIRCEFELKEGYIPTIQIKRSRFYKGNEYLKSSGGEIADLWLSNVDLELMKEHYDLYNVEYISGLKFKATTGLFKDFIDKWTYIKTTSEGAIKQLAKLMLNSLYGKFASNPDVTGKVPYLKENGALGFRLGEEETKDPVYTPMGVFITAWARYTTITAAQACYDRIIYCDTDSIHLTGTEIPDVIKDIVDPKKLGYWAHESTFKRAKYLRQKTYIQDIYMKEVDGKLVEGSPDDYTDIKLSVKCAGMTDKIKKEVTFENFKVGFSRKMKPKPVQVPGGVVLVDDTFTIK
To be noted: SD 24.2; unit not given (μM in assay); pH 7.9, 66 mM K-acetate, 30 C.

Series [2] has as its target T2, phi29 DNA polymerase G197D G197D (Bacillus phage phi29) (UniProt P03680).
T2 sequence: T1 sequence with G197D, L526F
To be noted: SD 25.7; unit not given (μM in assay); pH 7.9, 66 mM K-acetate, 30 C.

The target of series [3] is T3, phi29 DNA polymerase K512E K512E (Bacillus phage phi29) (UniProt P03680).
T3 sequence: T1 sequence with K512E, L526F
As to conditions: SD 27.6; unit not given (μM in assay); pH 7.9, 66 mM K-acetate, 30 C.

For series [4], the target named is T4, phi29 DNA polymerase Mut_5 M8R,V51A,M97T,G197D,E221K,Q497P,K512E,F526L (Bacillus phage phi29) (UniProt P03680).
T4 sequence: T1 sequence with M8R, V51A, M97T, G197D, E221K, Q497P, K512E
As to conditions: SD 7.4; unit not given (μM in assay); pH 7.9, 66 mM K-acetate, 30 C.

Changes are numbered by the printed parent chain.

Consider “GATCACAGTGAGTAC / TCTATTGTACTCACTGTGATC [15-mer/21-mer primer/template]”, for which the Kd (commonly the concentration at which binding is half-saturated) was determined as 53 µM in series [1], 51 µM in series [2], 54 µM in series [3] and 23 µM in series [4].
